From the nanobody polyreactivity screen of Harvey et al. (2022)

Assay: yeast display, Sf9 membrane polyspecificity reagent, FACS + sequencing; frameworks hold sequencing errors
Outline: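 A synthetic nanobody library was expressed on Saccharomyces cerevisiae BJ5465 by galactose induction for 36–48 hours. The library was stained for 1 hour at 4 °C with 10% biotinylated, detergent-solubilized Sf9 membrane reagent and enriched with streptavidin microbeads before FACS. Low and high (top ~1%) gates were set on anti-HA fluorescence for expression and streptavidin fluorescence for reagent binding, and each polyreactivity label reflects the gate of origin.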

| Sequence | polyreactivity (PSR sort gate) |
| --- | --- |
| QVQLVESGGGLVQAGGSLRLSCAASGFIFRKYAMGWYRQAPGKERELVAAITASGGSTYYADSVKGRFTISRDNAKNTVYLQMNSLKPEDTAVYYCATDYHGAERWLKYDYWGQGTQVTVSS | high polyreactivity |
| QVQLVESGGGLVQPGGSLRLSWAASGSIFVGYAMGWYRQAPGKERELVAAISTRGGSTYYADSVKGRFTISRDNAKNTVYLQINSLKPEDTAVYYCAADYLDSTYGYVFGWDDYWGQGTLVTVSS | low polyreactivity |
| QVQIVESGGGLVQAGGSLRLSCAASGSTFGRYAMGWYRQAPGKEREMVAAISASGGSTYYADSVKGRFTISRDYAKNTVYVQMNSLKPEDTAVYYCAALIDVITCQYDYWGHGTQVTVSS | high polyreactivity |
| QVQLVESGGRLVQAGGSLRLSCAASGRIFVVNAMGWYRQAPGKERELVAAIDRSGGSTYYADSVKGRFTISRDNAKNTVYLQMNSLKPEDTAVYYCNTGRRYYSYRRDYWGQGTQVTVSS | high polyreactivity |
| QVELVESGGGLVQAGGSLRLSCAASGSTFYYNAMGWYRQGPGTERELVAASTFTGGSTYADSVKGRFTISRDNAKNTVYLQMTSLKPEDTAVYYCAATIQRHDYLGTGYDYWGQGTQVTVSS | low polyreactivity |
| QVQLVESGGGLVQAGGSLRLSCAASGSIFWYNAMGWYIHAPWNERELVAAITSSSGRTRYADSEKGRFTISRDNAKNTVYLQMNSLKQEDTAVYYCAVAEGYSPAYLRDYWGQGTQVTVSS | high polyreactivity |
| QVQLVESGGGLVQAGGSLRLSCAASGSIIVLNAMGWYRQAPGKERELVAAITSGGSTYYADSVKGRFTISRDNAKNTVYLQMNSLKPEDTAVYYCNALDLSPSYKYDYWGQGTQVTVSS | low polyreactivity |
| QVQLVESGGGLVQAGGSLRLSCAASGSTSTLYAMGWYRQAPGKERELVAAISKSGGRTYYADSVKGRFTISRDNAKNTVYLQMNSLKPEDTAVYYCAALAVYPRRFDYWGQGTQVTVSS | high polyreactivity |
| QVQLVESGGGLVQAGGSLSLSSAASGSTFHRNTMGWYRQAPGKERELVAGISLRGVRTYYADSVKGRFTISRDNAKNSVYLQMNSLKPEDTAVYYCAGGGPYTRNFKLGYWGQGTQVSVSS | high polyreactivity |
| QVQLVESGGGLVQAGGSLRLSCAASGSIFDSYVMGWYRQAPGKERELVAAITYSGGSTYADSVKGRFTISRDNAKNTVYLQMNSLKPEDTAVYYCAAASYFYLYLLEDYWGQGTQVTVSS | low polyreactivity |
| QVQLVESGGGLVQAGGSLRLSCAASRRIFYWYAMGWYRQAPGKEREWVAAITWSGGSTYYADSVKGRFTISLDNAKNTVYLQMNSLKREDTAVYFCNAEVYWDVYPGLYYYDIYDYWGQGNQVTVSS | low polyreactivity |
| QVQLVESGGGLVQAGGSLRLSCAASGYTFFLNVMGWYRQAAGKEWELVAAISYSGGSTNYADSVKGRFTISRDNAKNTVYLQMNSLKPEDTAVYYCAVTTYSGLYGFEYWGQGTQVTVSS | low polyreactivity |
| QVQLVESGGGLVQAGGSLRLSCAASGFIFRPYVMGWYRQAPGKERELVAAISRSGSSTYYADSVKGRFTISRDNAKNTVYLQMNSLKPEDTAVYYCARRTSQEFDYWGQGTQVTVSS | high polyreactivity |
| QVQLVESGGGLVQAGGSLRLSCAASGSIFWTYAMGWSRQAPGKERELVATITYSDGNTYYADSVKGRFTISRDNAKNTVYFQMNSLKPEDTAVYYCNADGIYATISGYRYDYWGQGTQVTVSS | low polyreactivity |
| QVQLVESGGGLVQAGGSLRLSCAASGYTFDVYAMGWYRQAPGTERELVAAISDSGGSTYYADSVKGRFTISRDNAKNTVYLQMNSLKPEDTAVYFCAAGYDYFYAIVSPSEYDYWGQGTQVTVSS | low polyreactivity |
| QVQLVESGGGLVQAGGSLRLSCAASGFTLYYYAMGWYRQAPGKERELVAAIRSGGRTYYADSVKGRFTISRDNAKNTVYLQMNSLKPEDTAVYYCAARYRVYRGSRGITDYGYWGQGTQVTVSS | high polyreactivity |

| Sequence | polyreactivity (PSR sort gate) |
| --- | --- |
| QVQLVESGGGLVQAGGSLRLSCAASGRTFRRYAKGWYRQAPGKERELVATIRSGDNTNYADSVKGRFTISRDNAKNTVYLQMNSLKPEDTAVYYCNRSPKSGQVTYLYSVNAHYDYWGQGTQVSVSS | low polyreactivity |
| QDQLVESGGGLVQAGGSLRLSCAASGSIFSYTMGCYRQAPAKQRELVAAITSGGITYYADSVKGRFSISRDNAKNTVYLQMNSLKPEDTAVYYCADGWSSYRFGYWGQGTQVTVSS | low polyreactivity |
| QVQLVESGGGLVQAGGSLRLICAASGGIFWYYAMGWYRQAPGKERELVATISSGGSTKYADSVKGRFTISRDNAKNTVYLQMNSLKPEDTAVYYCNKVFPNLYIYVVRGLIEMDYWGQGTQVTVSS | low polyreactivity |
| QVQLVESGGGLVQAGGSLRLSCAASGFTFPHYAMGWYRQAPGKERELVAVISWSGSSTYYADSVKGRFTISRDNAMNTVYLQMNSLKPEDTAVYYCNTRKLYQVDYDYWGQGTQVTVSS | high polyreactivity |
| QVQLVESGGGLVQAGGSLRLSCAASGSILDSNAMGWYRPAPGKERELVAAITSGGSTYYADSVKGRFTISRDNAKNTVYLQMNSLKPEDTAVYYCAAAYLGYGAVQPSYEGGYWGQGTQVTVSS | low polyreactivity |
| QDQLVESGGGLVQAGGSLRLSCAASGSISYYAMGWYRQAPGKERELVAAISSSGGSTYYADSVKGRFTISRDNAKNTVYLQMNSLKPEDTAVYYCAARYYGFPSKYDYWGQGTQVTVSS | high polyreactivity |
| QVQLVESGGGLDQAGGSLRLSCAASGITLTNNAMGWYRQAPGKERELVAAITRSGGSTYYADSVKGRFTISRDNAKNTVYLQMNSLKPEDTAVYCAARWYSYSGSIRSYDYCGQGTQVTVSS | low polyreactivity |
| QVQLVESGGGLVQAGGSLRLSCAASGFTFYYYTMGRYRQAPGKEIELLADISSGDRTYYADSVKGRFTISRDNAKNTVYLQMNSLKPEDTAVYYCAAPAKYYTRFGHYNLNQDYDSWGQGTQVTVSS | low polyreactivity |
| QVQLVESGAGLVQAGASLRLSCDASAFIYVTYAMGWYRQAPGKEMELVAAITNSGGTTYYADSVKGRFTISRDNAKNTVYLQMNSLKPEDTAVYYCNKPYGGETAHREFDYWGQGTQVTVSS | low polyreactivity |
| QVQLVESGGGLVQAGGSLRLSCAASGSIFPTYAMGWYRQAPGKERELVAAITGSGGSTYYADSVKGRFTISRDNAKNTVYLQMNSLKPEDTAVYYCAKDVYWYGVWYDYWGQGTQLTVSS | high polyreactivity |
| QVQLVESGGGLVQAGGSLRLSCAASGRTCYDNTMGWSRQAPGTEREFVADITGSGGSTHYADSVKGRFTISRDNAKNTVYLQLNSLKPEDTAVYYCAADYRYNRGITSNKDYDYWGQGTQVTVSS | low polyreactivity |
| QFQLVESGGGLVQAGGSLRLSCAASGSTFRHNAMGWYRQASGKEREWVATIRTSGGTTYYADSVKGRFTISRDNAKNTVYLQMNSLKPEDTAFYYCAKDALFIDGGGGYDYWGQGTQVTVSS | low polyreactivity |
| QVQLVESGGGLVQAGGSLRLSCAASGRIFSYNAMGWYRQAPGKERELVAAITGGGSTNYADSVKGRFTISRDNAKNTVYLQMNSLKAEDTAVYYCAARSWSYKYWGQGTQVTVSS | high polyreactivity |
| QVQLVESGGGLVQAGGSLRLSCAASGGTFDTYDMGWYRQAPGKERELVAAIRFGDGTTYYADSVKGRFTISRDNAKNTVYLQMNSLKPEDTAVYYCNTDDPGNYWYAEYDYWGQGTQVTVSS | low polyreactivity |
| QVQLVESGGGLVQAGGSLRLSCAASGINFKRYAMGWYRQAPGKESELVATINRDGRTSYADSVKGRFTISRDNAKNTVYLQMNSLKQEDTAVYYFNKRGTYATPTPGNLFDYWGQGTLVTVSS | low polyreactivity |
